Consider one molecule from patent US11066655B2, “RNA polymerase, methods of purification and methods of use” (President and Fellows of Harvard College, priority 2013, dated 2021).

In the experiment the test system is template for a 37 nt RNA or a 2.7 knt RNA. The experiment in a line: 2′-F-dNTP incorporation with mixed cofactor Mg2+/Mn2+. In kind it is biochemical. The conditions noted are these: mixed cofactors Mg2+/Mn2+. The source says:
FIG. 25A depicts a gel showing that WT Syn5 polymerase incorporates 2′-F-C/UTP and all four 2′-F′dNTP in the presence of mixed cofactor Mg^2+/Mn^2+.
FIG. 25B depicts a gel comparing 2′-F′dNTP incorporation using Mg^2+ versus the mixed cofactor.
According to certain aspects of the invention, co-factors such as Mg^+2 and Mn^+2 are used to reduce discrimination against 2′-F-dNTP of wild-type Syn5 RNA polymerase. The optimum cofactor concentration of Mg^2+ or Mn^2+ is similar for Syn5 RNA polymerase, and Mg^2+ and Mn^2+ are provided as mixed cofactors for the Syn5 RNA polymerase. Without wishing to be bound by scientific theory, a substantial proportion of Syn5 RNA polymerase in the reaction may utilize one Mg^2+ and one Mn^2+ in their active sites for catalysis (based on the two-metal-ion mechanism for polymerase catalysis) so that both high overall yield and low discrimination against 2′-F-dNTP can be achieved with the methods described herein.
The reaction components were incubated at 37° C. for 4 hrs. 0.4 µl of the reaction mixture were loaded onto 10% TBE gel or 2% agarose gel and stained with ethidium bromide. […] See FIG. 25A lane 5 vs lane 1; FIG. 25B lane 3 vs lane 1). […]

B1: Syn5 RNAP: single subunit DNA-dependent RNA polymerase from marine cyanophage Syn5, amino acid sequence SEQ ID NO:23 (protein)
chain: MSFDLIARQLQRETEAAELARKRLQDARREANERSYASSNIESRKAIATFLDPIAQRIGERLFTLRRGTGAVDAAEVYKHLKNADHHHLALITMKTALDVLGKDPEPQIQQLTTAIGRNIQLELRLTYYAEENPELYKQASRFFHAGTGTRQKATVIKLKFNREGIEWDQWSRVTCHKVGQWLMLAMADVTGWIERATDRTSGGRKTKTRICYSREFLQHRDTILAAAEQLAFCQWPMLCPPIEWSNDHNGGYLSEQIRRVNPLIRKTGPLGTRKQGDIPLAMLNNLQGQAYKVNPEVLDIANHCYESNVTVGKFIRHAPLPVPPSPGEDCTEDQLTAYKRARREAEDFNAQISQKNWRTTEVMYVARKYADEASFWMPASFDYRGRVYFLNTALNPQGTDFDKALLYFAEEGPVNEWWLSFHVATTYGLDKETMVNRVQWARDNHELIDRIASDPVRHTEWHDADEPWCFLAACLEYKACVIDGTKQTSGLPIGIDATCSGLQHLAAMTRCGRTAALVNVTPTDKPADAYKTVAQASLKHLPKEQHEWITRKVTKRPVMCTPYGVTMSSARGYIRDQLVKDGHKEDLRSPGVLNGIVKAIFNEAIPEVIPGPVQVMAWLKRSAGQIIDRGDSTITWTTPSGFEVVQDLKKSKTYEVKTRIMGGARIKLQVGDGFTDEPDRDHHKSALAPNVVHSNDASLLHLTFAFWDKPFTVIHDCVLGRSCDMDQMGSDIRLHFAEMYKADVMQDWADQVGVELPVDLIKNTLDIDSVNQSLYFFS
modifications: Amino acid sequence of a cyanophage Syn5 RNAP
As to B1, the “RNA with all four 2′-F-dNMPs” value is “substantial yield” and the “yield of 2′-F-dCMP/2′-F-dUMP incorporated RNA” value is on record as “better yield”.
